Data from patent publication US20210332112A1.

Target: pertussis toxin (Bordetella pertussis) (UniProt P04977)
Experiment: ELISA, plate coated with pertussis toxin, antibody titrated, detection with goat anti-human kappa constant domain-HRP [panel C]

Substance: hu1B7-YTE extended half-life antibody
- EC50 (read off the curve): 0.04 mg/L
